According to patent US20230174635A1:

Molecular target: BMP4/7 heterodimer (human) (UniProt P12644)
Assay: cell-based or functional assay

BMP4/7 heterodimer (human), sequence (P12644 293-408, chain 1 of 2): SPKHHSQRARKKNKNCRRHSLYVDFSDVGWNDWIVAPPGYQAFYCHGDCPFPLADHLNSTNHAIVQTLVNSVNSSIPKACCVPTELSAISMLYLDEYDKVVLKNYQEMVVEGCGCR
BMP4/7 heterodimer (human), sequence (P18075 293-431, chain 2 of 2, further chain): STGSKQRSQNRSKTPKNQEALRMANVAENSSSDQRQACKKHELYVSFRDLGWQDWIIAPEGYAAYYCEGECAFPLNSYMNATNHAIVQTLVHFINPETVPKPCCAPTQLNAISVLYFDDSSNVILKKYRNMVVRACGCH

## Gremlin 1 Full length (from UniProt O60565 25-184) (ligand)
  IC50 (geometric mean, N=2), inhibition of BMP4/7 signalling, Hek-Id1 reporter gene assay: 1.6 nM
